Test results as given in paper PMC10786891, “Massively parallel profiling of RNA-targeting CRISPR-Cas13d”.
Substitutions are numbered along the chain they refer to. Names and notes keep the numbering of the source.

T1: EsCas13d, nuclease-dead (Eubacterium siraeum, UniProt B0MS50, R295A;H300A;R849A;H854A)
T1 sequence: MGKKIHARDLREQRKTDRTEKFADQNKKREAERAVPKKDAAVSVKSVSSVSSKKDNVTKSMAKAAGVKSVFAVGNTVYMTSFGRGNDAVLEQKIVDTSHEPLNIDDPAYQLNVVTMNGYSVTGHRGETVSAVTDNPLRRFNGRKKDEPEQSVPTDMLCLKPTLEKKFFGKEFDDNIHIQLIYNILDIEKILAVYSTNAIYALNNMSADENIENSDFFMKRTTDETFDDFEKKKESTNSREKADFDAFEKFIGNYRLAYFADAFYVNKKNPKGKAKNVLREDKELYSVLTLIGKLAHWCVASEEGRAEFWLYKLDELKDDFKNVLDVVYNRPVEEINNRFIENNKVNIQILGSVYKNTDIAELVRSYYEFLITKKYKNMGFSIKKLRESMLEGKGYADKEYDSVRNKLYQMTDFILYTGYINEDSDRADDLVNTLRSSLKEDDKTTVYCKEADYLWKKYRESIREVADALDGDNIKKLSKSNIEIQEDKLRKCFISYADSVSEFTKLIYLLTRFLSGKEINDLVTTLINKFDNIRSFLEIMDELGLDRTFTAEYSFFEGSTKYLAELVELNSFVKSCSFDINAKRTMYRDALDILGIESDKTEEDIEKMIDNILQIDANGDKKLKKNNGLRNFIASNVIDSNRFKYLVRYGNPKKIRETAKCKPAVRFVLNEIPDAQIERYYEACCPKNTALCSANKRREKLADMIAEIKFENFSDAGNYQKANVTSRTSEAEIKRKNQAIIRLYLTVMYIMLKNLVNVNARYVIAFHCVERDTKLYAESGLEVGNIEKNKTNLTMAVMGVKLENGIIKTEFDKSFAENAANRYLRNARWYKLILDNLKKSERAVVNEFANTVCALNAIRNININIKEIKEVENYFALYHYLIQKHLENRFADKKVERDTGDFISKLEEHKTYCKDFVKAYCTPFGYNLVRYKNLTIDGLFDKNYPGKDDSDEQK

B1: target 1 insU 3' of 18,insA 3' of 11 (mixed)
RNA 1: CACCCGUGCAAAAAUGCAGGGGUCUAAAACUGAGCGGAUAACCUCUCUAUGG
RNA 2: GGGAAUGGAUCCACAUCUACGAAUUCGUACCAUAUGAGAGGUAUAUCCGCUCACCGAGAUCGGAAGAGCACACGU
B2: target 1 A1G,G15U (mixed)
RNA 1: B1 RNA 1
RNA 2: GGGAAUGGAUCCACAUCUACGAAUUCGUACCAUAGAUAGGUUAUCCGCUCGCCGAGAUCGGAAGAGCACACGU
B3: target 1 insA 3' of 17,insA 3' of 13 (mixed)
RNA 1: B1 RNA 1
RNA 2: B1 RNA 2 with U35G, G36A, G41A, U42G, A43U
B4: target 1 A16G,C22U (mixed)
RNA 1: B1 RNA 1
RNA 2: B2 RNA 2 with C30U, A36G, U37G, G51A
B5: target 1 insC 3' of 22,insC 3' of 19 (mixed)
RNA 1: B1 RNA 1
RNA 2: GGGAAUGGAUCCACAUCUACGAAUUCGUACCCAUCAGAGAGGUUAUCCGCUCACCGAGAUCGGAAGAGCACACGU
B6: target 1 insC 3' of 5,insU 3' of 4 (mixed)
RNA 1: B1 RNA 1
RNA 2: GGGAAUGGAUCCACAUCUACGAAUUCGUACCAUAGAGAGGUUAUCCGCCUUCACCGAGAUCGGAAGAGCACACGU
B7: target 1 insC 3' of 12,insU 3' of 12 (mixed)
RNA 1: B1 RNA 1
RNA 2: B6 RNA 2 with U41C, A43U, C45A, C46U, G47C, C49G, U50C
B8: target 1 U19G,C22U (mixed)
RNA 1: B1 RNA 1
RNA 2: B2 RNA 2 with C30U, U33G, U37G, G51A
B9: target 1 insA 3' of 4,insG 3' of 1 (mixed)
RNA 1: B1 RNA 1
RNA 2: B6 RNA 2 with C49A, U51C, C52A, A53G
B10: target 1 C4G,U11A (mixed)
RNA 1: B1 RNA 1
RNA 2: B2 RNA 2 with U37G, U41A, C48G, G51A
B11: target 1 insA 3' of 6,insA 3' of 6 (mixed)
RNA 1: B1 RNA 1
RNA 2: B6 RNA 2 with G47A, C48A, C49G, U50C
B12: target 1 C4G,C6U (mixed)
RNA 1: B1 RNA 1
RNA 2: B2 RNA 2 with U37G, C46U, C48G, G51A
B13: target 1 G5C,U11G (mixed)
RNA 1: B1 RNA 1
RNA 2: B2 RNA 2 with U37G, U41G, G47C, G51A
B14: target 1 A9G,G12C (mixed)
RNA 1: B1 RNA 1
RNA 2: B2 RNA 2 with U37G, G40C, A43G, G51A
B15: target 1 C7U,G17A (mixed)
RNA 1: B1 RNA 1
RNA 2: B2 RNA 2 with G35A, U37G, C45U, G51A
B16: target 1 del4,del15 (mixed)
RNA 1: B1 RNA 1
RNA 2: GGGAAUGGAUCCACAUCUACGAAUUCGUACCAUAGAAGGUUAUCCGUCACCGAGAUCGGAAGAGCACACGU
B17: target 1 insA 3' of 10,insA 3' of 8 (mixed)
RNA 1: B1 RNA 1
RNA 2: B6 RNA 2 with U44A, C45U, C46A, G47C, C49G, U50C
B18: target 1 insA 3' of 19,insC 3' of 8 (mixed)
RNA 1: B1 RNA 1
RNA 2: B1 RNA 2 with U35A, A43U, U44A, A45U, U46C
B19: target 1 G15U (mixed)
RNA 1: B1 RNA 1
RNA 2: B2 RNA 2 with G51A
B20: target 1 del7,del18 (mixed)
RNA 1: B1 RNA 1
RNA 2: B16 RNA 2 with A34G, G35A, A36G, C45G, G46C
B21: target 1 insC 3' of 11,insA 3' of 3 (mixed)
RNA 1: B1 RNA 1
RNA 2: B6 RNA 2 with U42C, A43U, U44A, C45U, G47C, C48G, U51A
B22: target 1 G15C (mixed)
RNA 1: B1 RNA 1
RNA 2: B2 RNA 2 with U37C, G51A
B23: target 1 C7A,G17A (mixed)
RNA 1: B1 RNA 1
RNA 2: B2 RNA 2 with G35A, U37G, C45A, G51A
B24: target 1 A18U,U19A (mixed)
RNA 1: B1 RNA 1
RNA 2: B2 RNA 2 with U33A, A34U, U37G, G51A
B25: target 1 insG 3' of 18,insG 3' of 11 (mixed)
RNA 1: B1 RNA 1
RNA 2: B1 RNA 2 with U35G, A43G
B26: target 1 insU 3' of 12,insU 3' of 7 (mixed)
RNA 1: B1 RNA 1
RNA 2: B6 RNA 2 with A43U, U44A, C45U, G47U, C49G, U50C
B27: target 1 insU 3' of 18,insG 3' of 6 (mixed)
RNA 1: B1 RNA 1
RNA 2: B1 RNA 2 with A43U, U44A, A45U, U46C, C48G
B28: target 1 insC 3' of 13,insU 3' of 4 (mixed)
RNA 1: B1 RNA 1
RNA 2: B6 RNA 2 with G40C, U41G, A43U, U44A, C45U, G47C, C48G
B29: target 1 insU 3' of 20,insA 3' of 11 (mixed)
RNA 1: B1 RNA 1
RNA 2: B1 RNA 2 with A34U, U35A

Biological target: T1, EsCas13d, nuclease-dead
Assay: crRNA (strand 1, pre-loaded); Mg2+; 40 mM Tris-HCl pH 7.5, 150 mM NaCl, 6 mM MgCl2, 1 mM DTT, 0.1% Tween-20, 0.2 mg/ml BSA; 25 C; 10 min per concentration, then washed
Settings: tags: His6-TwinStrep-SUMO cleaved; N-terminal SNAP kept (SNAP-Surface 488); label: 3' end held by stalled T7 RNA polymerase

Row | Binder | Kd
1 | B1 | 68 ± 6 nM
2 | B2 | 23 ± 4 nM
3 | B3 | 10 ± 0.7 nM
4 | B4 | 54 ± 12 nM
5 | B5 | ~70 nM
6 | B6 | 15.7 ± 1.3 nM
7 | B7 | 10.2 ± 0.8 nM
8 | B8 | 74 ± 16 nM
9 | B9 | 5.2 ± 0.4 nM
10 | B10 | 9 ± 1 nM
11 | B11 | 17.4 ± 0.9 nM
12 | B12 | 3.83 ± 0.2 nM
13 | B13 | 37 ± 5 nM
14 | B14 | 9.7 ± 0.4 nM
15 | B15 | 34 ± 4 nM
16 | B16 | 56 ± 13 nM
17 | B17 | 11.3 ± 0.4 nM
18 | B18 | 34 ± 4 nM
19 | B19 | 18.6 ± 1.1 nM
20 | B20 | 58 ± 6 nM
21 | B21 | 27.4 ± 2 nM
22 | B22 | 47.2 ± 3.4 nM
23 | B23 | 51 ± 5 nM
24 | B24 | 42 ± 7 nM
25 | B25 | 92 ± 24 nM
26 | B26 | 16.2 ± 0.6 nM
27 | B27 | 33.2 ± 2.9 nM
28 | B28 | 8.1 ± 0.4 nM
29 | B29 | 29.6 ± 2.6 nM
